# Measurements taken from article PMC4056859.
# What was measured:
# [1] = molecular target: ht-ADH single-tryptophan variant W87in (W49F:W167Y) (Bacillus stearothermophilus); assay: SEC
# [2] = molecular target: ht-ADH single-tryptophan variant W167in (W49F:W87F) (Bacillus stearothermophilus); assay: SEC
stoichiometry N [1],stoichiometry N [2],Substance
4,,ht-ADH single-tryptophan variant W87in (W49F:W167Y) (enzyme)
,4,ht-ADH single-tryptophan variant W167in (W49F:W87F) (enzyme)
